Test results: patent US11535650 (RA PHARMACEUTICALS, dated 2022)
Starred links: 1 amine or outer side, 2 acyl side, 3 side chain; linkers in the order of their positions; H or OH if unused. Positions of bridges follow the written chain, without caps; N, C: chain ends. Non-standard residues stand in square brackets, D forms with d. No end group written: not given here. *: point of attachment. mXylyl = bridging moiety between residues (mXylyl(i,j)); Trp(7-aza) = N[C@@H](Cc1c[nH]c2ncccc12)C(=O)O; ivDde = CC(C)CC(=C1C(=O)CC(C)(C)CC1=O)*; pXylylene = c1cc(C[*:2])ccc1C[*:1]; NMeD = CN[C@@H](CC(=O)O)C(=O)O; Chg = N[C@H](C(=O)O)C1CCCCC1; Phg = N[C@H](C(=O)O)c1ccccc1; Tle = CC(C)(C)[C@H](N)C(=O)O; NMeS = CN[C@@H](CO)C(=O)O; Nva = CCC[C@H](N)C(=O)O

B1: R3023 (peptide)
peptide: Ac-YPYC[Phg][Trp(7-aza)][Tle]E[Nva]NY[Nva]E-NH2
SMILES: CCC[C@H](NC(=O)[C@H](Cc1ccc(O)cc1)NC(=O)[C@H](CC(N)=O)NC(=O)[C@H](CCC)NC(=O)[C@H](CCC(=O)O)NC(=O)[C@@H](NC(=O)[C@H](Cc1c[nH]c2ncccc12)NC(=O)[C@@H](NC(=O)[C@H](CS)NC(=O)[C@H](Cc1ccc(O)cc1)NC(=O)[C@@H]1CCCN1C(=O)[C@H](Cc1ccc(O)cc1)NC(C)=O)c1ccccc1)C(C)(C)C)C(=O)N[C@@H](CCC(=O)O)C(N)=O
notes: negative control in the FP assays; also called control polypeptide; scrambled polypeptide variant of R3002
B2: R3003 (peptide)
peptide: Ac-[Nva]CYEN[Tle]Y[Trp(7-aza)]EYP[Phg]P-NH2
SMILES: CCC[C@H](NC(C)=O)C(=O)N[C@@H](CS)C(=O)N[C@@H](Cc1ccc(O)cc1)C(=O)N[C@@H](CCC(=O)O)C(=O)N[C@@H](CC(N)=O)C(=O)N[C@H](C(=O)N[C@@H](Cc1ccc(O)cc1)C(=O)N[C@@H](Cc1c[nH]c2ncccc12)C(=O)N[C@@H](CCC(=O)O)C(=O)N[C@@H](Cc1ccc(O)cc1)C(=O)N1CCC[C@H]1C(=O)N[C@H](C(=O)N1CCC[C@H]1C(N)=O)c1ccccc1)C(C)(C)C
B3: R3076 (peptide)
peptide: VVYENGYWEYPGVK
modifications: Ac-Nvl-Nvl-Y-E-N-Tbg-Y-azaTrp-E-Y-P-Chg-Nvl-K-(BODIPY-TMR-X) NH2
notes: R3072 with BODIPY-TMR dye on the C-terminal lysine; fluorescent probe of the FP assay; also called Probe R3076; labeled probe

Each binder was assayed against T1, human C5 protein (human, UniProt P01031 19-673; P01031 678-1676) (assay: competitive fluorescence polarization vs probe R3076, Exp 2).
T1 construct: Natural C5 is made from one precursor and circulates as two disulfide-linked chains; also called complement component C5; purified human C5
Method: (§1) Test articles listed in Table 7 were subsequently diluted in DMSO then assay buffer, comprising 10 2-fold dilutions and were then added to the assay plate in triplicate, rapidly. The assay plate was then incubated in the Paradigm (Molecular Devices, Sunnyvale, Calif.) plate reader for 60 minutes at 25° C.
(§2) After incubation for 60 minutes, the plate was read using the Paradigm FP protocol (Molecular Devices, Sunnyvale, Calif.) and raw polarization values were imported into Graphpad Prism.

Going from Ac-[Nva]C[Phg]T[Trp(7-aza)]EY[NMeS]HC[Nva]P-NH2 (linker 2-10 via mXylyl) [R3011] to Ac-C[Phg]T[Trp(7-aza)]EY[NMeS]HC[Nva]P[Nva]-NH2 (linker 1-9 via mXylyl) [R3014], the IC50 rises from 261 nM to 7580 nM (29-fold).

Compared with B1, B2 is lower in IC50: over 1000 nM for the first, 64.1 nM for the second. The second is the more potent here.

Going from MCVERFCDVYWE-NH2 (linker 2-7 via mXylyl) [R3043] to Ac-[Nva]C[Phg]T[Trp(7-aza)]EY[NMeS]HC[Nva]-NH2 (linker 2-10 via pXylylene) [R3050], the IC50 falls from 4120 nM to 293 nM (14-fold). The second is the more potent here.

Going from Ac-[Nva]C[Phg]T[Trp(7-aza)]EY[NMeS]HC[Nva]P-NH2 (linker 2-10 via mXylyl) [R3011] to Ac-C[Phg]T[Trp(7-aza)]EY[NMeS]HC[Nva]P[Nva]-NH2 (linker 1-9 via mXylyl) [R3014], the Ki rises from 86.9 nM to 1580 nM (18-fold).

Compared with B1, B2 is lower in Ki: over 1000 nM for the first, 8.69 nM for the second. The second binds more tightly here.

Compared with MCVERFCDVYWE-NH2 (linker 2-7 via mXylyl) [R3043], Ac-[Nva]C[Phg]T[Trp(7-aza)]EY[NMeS]HC[Nva]-NH2 (linker 2-10 via pXylylene) [R3050] is 15-fold lower in Ki: 882 nM for the first, 57.6 nM for the second. The second binds more tightly here.

Each binder was assayed against T1, human C5 protein (assay: competitive fluorescence polarization vs probe R3076, Exp 1).
Method: as §1, §2

Compared with Ac-[Nva]C[Phg]T[Trp(7-aza)]EY[NMeS]HC[Nva]P-NH2 (linker 2-10 via mXylyl) [R3011], Ac-C[Phg]T[Trp(7-aza)]EY[NMeS]HC[Nva]P[Nva]-NH2 (linker 1-9 via mXylyl) [R3014] is 21-fold higher in IC50: 295 nM for the first, 6060 nM for the second.

Going from B1 to B2, the IC50 falls from over 1000 nM to 72.7 nM. The second is the more potent here.

First: MCVERFCDVYWE-NH2 (linker 2-7 via mXylyl) [R3043]
Second: Ac-[Nva]C[Phg]T[Trp(7-aza)]EY[NMeS]HC[Nva]-NH2 (linker 2-10 via pXylylene) [R3050]
The IC50 of the first is 16-fold higher: 4330 nM for the first, 267 nM for the second. The second is the more potent here.

Going from Ac-[Nva]C[Phg]T[Trp(7-aza)]EY[NMeS]HC[Nva]P-NH2 (linker 2-10 via mXylyl) [R3011] to Ac-C[Phg]T[Trp(7-aza)]EY[NMeS]HC[Nva]P[Nva]-NH2 (linker 1-9 via mXylyl) [R3014], the Ki rises from 73.2 nM to 1400 nM (19-fold).

Compared with B1, B2 is lower in Ki: over 1000 nM for the first, 10.4 nM for the second. The second binds more tightly here.

Compared with MCVERFCDVYWE-NH2 (linker 2-7 via mXylyl) [R3043], Ac-[Nva]C[Phg]T[Trp(7-aza)]EY[NMeS]HC[Nva]-NH2 (linker 2-10 via pXylylene) [R3050] is 12-fold lower in Ki: 866 nM for the first, 71.1 nM for the second. The second binds more tightly here.

Each binder was assayed against T1, human C5 protein (assay: cell-based or functional assay).

In order of rising “IC50, C5a EIA on supernatant of human RBC hemolysis assay” value:
1. VCYENGYWEYPGV (Ac-Nvl-C-Y-E-N-Tbg-Y-azaTrp-E-Y-P-Phg-Nvl-NH2) [R3002]  5.4 nM
2. Ac-[Nva]C[Phg]T[Trp(7-aza)]EY[NMeS]HC[Nva]P[Nva]-NH2 (linker 2-10 via mXylyl) [R3008]  54.5 nM

With Ac-[Nva]C[Phg]T[Trp(7-aza)]EY[NMeS]HC[Nva]P[Nva]-NH2 (linker 2-10 via mXylyl) [R3008] the “IC50, membrane attack complex (MAC) EIA on supernatant of human RBC hemolysis assay” value was 33 nM.

Target: T1, human C5 protein
Assay: cell-based or functional assay
Remark: another data set of the same source

First: Ac-[Nva]C[Phg]T[Trp(7-aza)]EY[NMeS]HC[Nva]P-NH2 (linker 2-10 via mXylyl) [R3011]
Second: Ac-C[Phg]T[Trp(7-aza)]EY[NMeS]HC[Nva]P[Nva]-NH2 (linker 1-9 via mXylyl) [R3014]
The “Avg. IC50, human hemolysis assay (complete human sera)” value (shortened to “Avg. IC50, human hemolysis assay”) of the first is 13-fold lower: 112 nM for the first, 1420 nM for the second.

Compared with Ac-[Nva]C[Phg]T[Trp(7-aza)]EY[NMeS]HC[Nva]P[Nva]-NH2 (linker 2-10 via mXylyl) [R3008], B1 is higher in “Avg. IC50, human hemolysis assay” value: 97 nM for the first, over 100000 nM for the second.

First: B2
Second: MCVERFCDVYWE-NH2 (linker 2-7 via mXylyl) [R3043]
The “Avg. IC50, human hemolysis assay” value of the first is 67-fold lower: 13.9 nM for the first, 934 nM for the second.

Going from Ac-[Nva]C[Phg]T[Trp(7-aza)]EY[NMeS]HC[Nva]-NH2 (linker 2-10 via pXylylene) [R3050] to B3, the “Avg. IC50, human hemolysis assay” value rises from 42.9 nM to 297 nM (6.9-fold).

Each binder was assayed against T1, human C5 protein (assay: competitive fluorescence polarization vs probe R3076, average of two experiments).
Method: as §1, §2

First: Ac-[Nva]C[Phg]T[Trp(7-aza)]EY[NMeS]HC[Nva]P-NH2 (linker 2-10 via mXylyl) [R3011]
Second: Ac-C[Phg]T[Trp(7-aza)]EY[NMeS]HC[Nva]P[Nva]-NH2 (linker 1-9 via mXylyl) [R3014]
The IC50 of the first is 25-fold lower: 278 nM for the first, 6820 nM for the second.

First: B1
Second: B2
The IC50 of the first is higher: over 1000 nM for the first, 68.4 nM for the second.

Going from MCVERFCDVYWE-NH2 (linker 2-7 via mXylyl) [R3043] to Ac-[Nva]C[Phg]T[Trp(7-aza)]EY[NMeS]HC[Nva]-NH2 (linker 2-10 via pXylylene) [R3050], the IC50 falls from 4230 nM to 280 nM (15-fold). The second is the more potent here.

First: Ac-[Nva]C[Phg]T[Trp(7-aza)]EY[NMeS]HC[Nva]P-NH2 (linker 2-10 via mXylyl) [R3011]
Second: Ac-C[Phg]T[Trp(7-aza)]EY[NMeS]HC[Nva]P[Nva]-NH2 (linker 1-9 via mXylyl) [R3014]
The Ki of the first is 19-fold lower: 80 nM for the first, 1500 nM for the second. The first binds more tightly here.

Compared with B1, B2 is lower in Ki: over 1000 nM for the first, 9.54 nM for the second.

First: MCVERFCDVYWE-NH2 (linker 2-7 via mXylyl) [R3043]
Second: Ac-[Nva]C[Phg]T[Trp(7-aza)]EY[NMeS]HC[Nva]-NH2 (linker 2-10 via pXylylene) [R3050]
The Ki of the first is 14-fold higher: 874 nM for the first, 64.3 nM for the second. The second binds more tightly here.

Target: T1, human C5 protein
Assay: cell-based or functional assay
Remark: another data set of the same source

In order of falling “Avg. IC50, hemolysis assay (C5 depleted sera + purified human C5)” value:
1. [(desamino)Cys]VERFC[NMeD][Tle]Y[Trp(7-aza)]EYP[Chg]K(C16) (bridge 1-6) [R3198]  142 nM
2. [(desamino)Cys][dA]ERFC[NMeD][Tle]Y[Trp(7-aza)]EYP[Chg]K(C16) (bridge 1-6) [R3199]  112 nM
3. Ac-KVERFD[NMeD][Tle]YWEYP[Chg]K(C16) (lactam 1-6) [R3195]  62.5 nM
4. Ac-KVERFD[NMeD][Tle]YWEYP[Chg]K(ivDde) (lactam 1-6) [R3197]  4 nM
5. Ac-KVERFD[NMeD][Tle]YWEYP[Chg]K (lactam 1-6) [R3196]  3 nM

What follows are binders tested against T1, human C5 protein (assay: fluorescence polarization, 25 nM R3076 with increasing concentrations of C5, average of 10 to 60 minutes).
Method: Polarization was measured over time, until binding reached equilibrium. K_D was determined using Graphpad Prism (using "Saturating Binding Curves, One Site—Specific Binding With Hill Slope" as the curve fit to determine K_D).

With B3 the Kd was 8.07 nM.
